Reference: US20230287081A1 (NANTONG YICHEN BIOPHARMA, published 2023)

What was measured:
[1] = target: T1, hPD-L1 on the cell surface (CHO-hPD-L1 cells; A431 cells) (human, UniProt Q9NZQ7 19-290); experiment: flow cytometry on CHO-hPD-L1 cells (hEGFR- hPDL1+)
T1 construct: whole, on cells; also called CHO-PD-L1
Procedure: (§1) A431, MC38-hEGFR, CHO-PD-L1, HepG2, and Hepa1-6 cells (DMEM medium containing 10% FBS, 1% double antibody) were cultured. After trypsinization, 2*10⁵ cells were taken and washed with pre-cooled PBS for 3 times. After blocked with PBS containing 2% FBS at 4° C., supernatant was discarded by centrifugation, 100 µL of the antibody fusion proteins with different concentrations diluted by the PBS solution containing 2% FBS were added and incubated at 4° C. for 1 h. The unbound antibody fusion protein was washed off with PBS containing 2% FBS, and secondary antibody Mouse Anti-Human IgG Fc-APC (Southern biotech) was added and incubated at 4° C. for 1 h. After being washed with PBS containing 2% FBS for three times, the fluorescence intensity was detected by flow cytometry.

[2] = target: T2, mouse PD-L1-Fc (SinoBiological) (mouse, UniProt Q9EP73 19-238, limits assumed); experiment: ELISA, mouse PD-L1-Fc coated
T2 construct: Bought reagent; also called soluble mPD-L1; not shown: Fc
T2 sequence (Q9EP73 19-238 limits assumed): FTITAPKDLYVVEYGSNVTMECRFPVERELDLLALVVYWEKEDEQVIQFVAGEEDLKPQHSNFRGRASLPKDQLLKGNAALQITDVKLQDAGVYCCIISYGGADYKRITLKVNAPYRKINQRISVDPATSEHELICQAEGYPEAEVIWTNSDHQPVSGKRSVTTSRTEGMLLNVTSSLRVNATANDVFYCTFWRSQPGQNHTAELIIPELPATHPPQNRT
Procedure: (§2) hPD-L1-hIGg1Fc (SinoBiological) or mouse PD-L1-Fc (SinoBiological) (100 ng/well) was coated in 96-well plates, and incubated overnight at 4° C. […] After being washed with PBST containing 2% skimmed milk powder for 4-5 times, anti-human kappa light chain-HRP (Sigma A7146, 1:3000) secondary antibody was added and incubated at room temperature for 1 h, and then washed with PBST containing 2% skimmed milk powder for 4-5 times. Colordevelopment was performed by QuantaBlu fluorescent peroxidase substrate (Life technologies, Cat.15169) and read at 325 nm and 420 nm, or by TMB color reagent (BioLegend, Cat. 421101) and read at 650 nm (unterminated) or 450 nm (terminated). Data was analyzed by nonlinear regression using specific binding model with Prizm Graphpad software.

[3] = target: T3, hPD-L1-hIGg1Fc (SinoBiological) (human, UniProt Q9NZQ7 19-238); experiment: ELISA, hPD-L1-hIgG1Fc coated
T3 construct: Bought reagent; also called soluble hPD-L1; human PD-L1; not shown: human IgG1 Fc
T3 sequence (Q9NZQ7 19-238 limits assumed): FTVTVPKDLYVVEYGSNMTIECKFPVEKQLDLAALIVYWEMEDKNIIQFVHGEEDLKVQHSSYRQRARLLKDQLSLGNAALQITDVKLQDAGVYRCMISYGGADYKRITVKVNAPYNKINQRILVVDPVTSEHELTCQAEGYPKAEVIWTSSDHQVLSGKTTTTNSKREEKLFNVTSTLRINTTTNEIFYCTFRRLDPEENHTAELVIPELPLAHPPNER
Procedure: as §2

[4] = target: T2, mouse PD-L1-Fc (SinoBiological); experiment: ELISA, mouse PD-L1-Fc coated; weaker than the PD-1m fusion
Procedure: as §2

[5] = target: T3, hPD-L1-hIGg1Fc (SinoBiological); experiment: ELISA, hPD-L1-hIgG1Fc coated; weaker than the PD-1m fusion
Procedure: as §2

[6] = target: T4, mPDL1 on the surface of Hepa1-6 cells (mouse, UniProt Q9EP73 19-290); experiment: flow cytometry on Hepa1-6 cells (hGPC3- mPDL1+)
T4 construct: whole, on cells; also called mouse PD-L1
T4 sequence (Q9EP73 19-290): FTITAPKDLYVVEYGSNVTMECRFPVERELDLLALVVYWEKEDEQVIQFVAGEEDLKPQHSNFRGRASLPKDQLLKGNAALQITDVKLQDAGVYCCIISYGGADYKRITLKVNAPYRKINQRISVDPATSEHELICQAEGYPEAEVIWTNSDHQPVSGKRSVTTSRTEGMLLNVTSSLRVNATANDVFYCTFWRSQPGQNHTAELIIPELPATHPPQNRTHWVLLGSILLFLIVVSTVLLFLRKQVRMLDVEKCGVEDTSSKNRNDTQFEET
Procedure: as §1

[7] = target: T1, hPD-L1 on the cell surface (CHO-hPD-L1 …); experiment: flow cytometry on A431 cells (hGPC3- hPDL1+)
Procedure: as §1

Measured: binding result

T1 sequence (Q9NZQ7 19-290): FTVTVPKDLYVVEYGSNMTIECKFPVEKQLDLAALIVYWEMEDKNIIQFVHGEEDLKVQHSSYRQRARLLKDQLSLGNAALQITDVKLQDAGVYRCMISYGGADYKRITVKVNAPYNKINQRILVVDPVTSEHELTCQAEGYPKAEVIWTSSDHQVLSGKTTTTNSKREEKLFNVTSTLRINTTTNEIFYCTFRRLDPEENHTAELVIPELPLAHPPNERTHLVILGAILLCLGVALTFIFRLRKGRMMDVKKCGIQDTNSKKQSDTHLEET

B1: PD-1m-aEGFRL (bispecific antibody, human IgG1, kappa)
heavy: QVQLQESGPGLVKPSETLSLTCTVSGGSVSSGDYYWTWIRQSPGKGLEWIGHIYYSGNTNYNPSLKSRLTISIDTSKTQFSLKLSSVTAADTAIYYCVRDRVTGAFDIWGQGTMVTVSSASTKGPSVFPLAPSSKSTSGGTAALGCLVKDYFPEPVTVSWNSGALTSGVHTFPAVLQSSGLYSLSSVVTVPSSSLGTQTYICNVNHKPSNTKVDKKVEPKSCDKTHTCPPCPAPPVAGPSVFLFPPKPKDTLMISRTPEVTCVVVDVSHEDPEVKFNWYVDGVEVHNAKTKPREEQYNSTYRVVSVLTVLHQDWLNGKEYKCKVSNKGLPSSIEKTISKAKGQPREPQVYTLPPSRDELTKNQVSLTCLVKGFYPSDIAVEWESNGQPENNYKTTPPVLDSDGSFFLYSKLTVDKSRWQQGNVFSCSVMHEALHNHYTQKSLSLSPGK
light: not shown
binds: [1] | [2] | [3]

B2: PD-1-aEGFRL (bispecific antibody)
heavy: QVQLQESGPGLVKPSETLSLTCTVSGGSVSSGDYYWTWIRQSPGKGLEWIGHIYYSGNTNYNPSLKSRLTISIDTSKTQFSLKLSSVTAADTAIYYCVRDRVTGAFDIWGQGTMVTVSSASTKGPSVFPLAPSSKSTSGGTAALGCLVKDYFPEPVTVSWNSGALTSGVHTFPAVLQSSGLYSLSSVVTVPSSSLGTQTYICNVNHKPSNTKVDKKVEPKSCDKTHTCPPCPAPPVAGPSVFLFPPKPKDTLMISRTPEVTCVVVDVSHEDPEVKFNWYVDGVEVHNAKTKPREEQYNSTYRVVSVLTVLHQDWLNGKEYKCKVSNKGLPSSIEKTISKAKGQPREPQVYTLPPSRDELTKNQVSLTCLVKGFYPSDIAVEWESNGQPENNYKTTPPVLDSDGSFFLYSKLTVDKSRWQQGNVFSCSVMHEALHNHYTQKSLSLSPGK
light: not shown
notes: Wild-type human PD-1 fused to the light chain of the anti-human EGFR antibody
binds: [4] | [5]

B3: PD-1m-aGPC-3L (bispecific antibody, human IgG1, kappa)
heavy: QVQLVQSGAEVKKPGASVKVSCKASGYTFTDYEMHWVRQAPGQGLEWMGALDPKTGDTAYSQKFKGRVTLTADKSTSTAYMELSSLTSEDTAVYYCTRFYSYTYWGQGTLVTVSSASTKGPSVFPLAPSSKSTSGGTAALGCLVKDYFPEPVTVSWNSGALTSGVHTFPAVLQSSGLYSLSSVVTVPSSSLGTQTYICNVNHKPSNTKVDKKVEPKSCDKTHTCPPCPAPPVAGPSVFLFPPKPKDTLMISRTPEVTCVVVDVSHEDPEVKFNWYVDGVEVHNAKTKPREEQYNSTYRVVSVLTVLHQDWLNGKEYKCKVSNKGLPSSIEKTISKAKGQPREPQVYTLPPSRDELTKNQVSLTCLVKGFYPSDIAVEWESNGQPENNYKTTPPVLDSDGSFFLYSKLTVDKSRWQQGNVFSCSVMHEALHNHYTQKSLSLSPGK
light: LDSPDRPWNPPTFSPALLVVTEGDNATFTCSFSNTSESFVLNWYRMSPSNQTDKLAAFPEDRSQPGQDSRFRVTQLPNGRDFHMSVVRARRNDSGTYLCGAISLAPKVQIKESLRAELRVTERRAEVPTAHPSPSPRPAGQFQGGGGSGGGGSGGGGSGDVVMTQSPLSLPVTPGEPASISCRSSQSLVHSNRNTYLHWYLQKPGQSPQLLIYKVSNRFSGVPDRFSGSGSGTDFTLKISRVEAEDVGVYYCSQNTHVPPTFGQGTKLEIKRTVAAPSVFIFPPSDEQLKSGTASVVCLLNNFYPREAKVQWKVDNALQSGNSQESVTEQDSKDSTYSLSSTLTLSKADYEKHKVYACEVTHQGLSSPVTKSFNRGEC
binds: [6] | [7] | [2] | [3]
